Article PMC9638933

Tests used:
[1] = biological target: T1, Kucore (Mycobacterium tuberculosis, UniProt P9WKD9 1-238); assay: EMSA; 5 mM Mg2+; EMSA: 50 mM Tris-HCl pH 8.0, 50 mM NaCl, 1 mM DTT, 5 mM MgCl2, 4% glycerol, 0.025 mg/ml BSA, 10 nM DNA, 30 C 20 min; FP: 10 mM Tris-HCl pH 8, 10 mM NaCl, 10% glycerol, 1 mM TCEP, 50 nM DNA, 30 C; ternary EMSA: 20 mM Tris-HCl pH 8.0, 5 mM MgCl2, 5% glycerol, 37 C; bridging: 20 mM Tris-HCl pH 7.5, 50 mM KCl, 5 mM EDTA, 1 mM DTT, 5% glycerol, 40 ug/ml BSA, room temperature; conditions: protein: recombinant; tags: His (Ni-NTA purified; pMCSG7); chain copies: 2; label: 5' 6-FAM on strand 1; blunt
T1 sequence: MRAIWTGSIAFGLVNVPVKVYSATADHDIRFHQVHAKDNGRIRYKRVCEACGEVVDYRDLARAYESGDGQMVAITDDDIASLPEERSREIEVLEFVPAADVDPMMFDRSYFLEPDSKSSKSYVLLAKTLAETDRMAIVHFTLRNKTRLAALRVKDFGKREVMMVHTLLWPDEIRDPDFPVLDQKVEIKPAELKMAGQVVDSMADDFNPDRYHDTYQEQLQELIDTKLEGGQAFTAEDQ

[2] = biological target: T2, Kumin (Mycobacterium tuberculosis, UniProt P9WKD9 1-259); assay: as above; conditions: protein: recombinant; tags: His (Ni-NTA purified; pMCSG7); chain copies: 2; label: 5' 6-FAM on strand 1; blunt
T2 sequence: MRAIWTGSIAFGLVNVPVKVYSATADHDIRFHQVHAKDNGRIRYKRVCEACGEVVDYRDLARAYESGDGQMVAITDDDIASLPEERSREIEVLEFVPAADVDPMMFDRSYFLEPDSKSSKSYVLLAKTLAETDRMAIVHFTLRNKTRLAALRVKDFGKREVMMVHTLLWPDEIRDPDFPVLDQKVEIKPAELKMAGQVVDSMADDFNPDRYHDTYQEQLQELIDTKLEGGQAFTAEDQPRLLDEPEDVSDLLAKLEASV

[3] = biological target: LigD (UniProt P9WNV3 1-759); assay: fluorescence polarization; EMSA: 50 mM Tris-HCl pH 8.0, 50 mM NaCl, 1 mM DTT, 5 mM MgCl2, 4% glycerol, 0.025 mg/ml BSA, 10 nM DNA, 30 C 20 min; FP: 10 mM Tris-HCl pH 8, 10 mM NaCl, 10% glycerol, 1 mM TCEP, 50 nM DNA, 30 C; ternary EMSA: 20 mM Tris-HCl pH 8.0, 5 mM MgCl2, 5% glycerol, 37 C; bridging: 20 mM Tris-HCl pH 7.5, 50 mM KCl, 5 mM EDTA, 1 mM DTT, 5% glycerol, 40 ug/ml BSA, room temperature; conditions: protein: recombinant; tags: His (Ni-NTA purified; pMCSG7); label: 5' 6-FAM on strand 1; blunt
Sequence of LigD (P9WNV3 whole entry): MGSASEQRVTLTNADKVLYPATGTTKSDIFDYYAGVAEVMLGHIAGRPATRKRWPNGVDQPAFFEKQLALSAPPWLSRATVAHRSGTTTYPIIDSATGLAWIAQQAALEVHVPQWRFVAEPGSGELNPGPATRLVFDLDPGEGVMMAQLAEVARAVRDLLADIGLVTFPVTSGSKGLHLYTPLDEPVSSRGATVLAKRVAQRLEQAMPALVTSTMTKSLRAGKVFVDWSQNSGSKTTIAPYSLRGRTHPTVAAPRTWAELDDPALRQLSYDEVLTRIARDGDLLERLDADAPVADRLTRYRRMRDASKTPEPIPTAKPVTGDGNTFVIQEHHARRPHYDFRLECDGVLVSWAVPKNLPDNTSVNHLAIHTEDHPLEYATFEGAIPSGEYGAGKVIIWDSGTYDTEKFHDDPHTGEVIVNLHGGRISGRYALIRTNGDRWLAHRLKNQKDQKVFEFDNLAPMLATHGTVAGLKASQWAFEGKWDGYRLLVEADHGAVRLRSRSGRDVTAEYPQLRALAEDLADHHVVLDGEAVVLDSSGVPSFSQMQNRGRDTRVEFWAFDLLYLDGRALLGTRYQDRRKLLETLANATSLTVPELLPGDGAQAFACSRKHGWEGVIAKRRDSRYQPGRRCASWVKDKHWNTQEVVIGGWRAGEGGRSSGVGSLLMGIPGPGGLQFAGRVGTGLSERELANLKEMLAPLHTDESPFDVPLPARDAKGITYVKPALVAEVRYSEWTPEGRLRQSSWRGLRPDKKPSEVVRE

[4] = biological target: Kucore;LigD (Mycobacterium …, UniProt P9WKD9;P9WNV3 1-238;1-759, |); assay: EMSA; 10 uM Ku, 1 uM LigD; supershift; EMSA: 50 mM Tris-HCl pH 8.0, 50 mM NaCl, 1 mM DTT, 5 mM MgCl2, 4% glycerol, 0.025 mg/ml BSA, 10 nM DNA, 30 C 20 min; FP: 10 mM Tris-HCl pH 8, 10 mM NaCl, 10% glycerol, 1 mM TCEP, 50 nM DNA, 30 C; ternary EMSA: 20 mM Tris-HCl pH 8.0, 5 mM MgCl2, 5% glycerol, 37 C; bridging: 20 mM Tris-HCl pH 7.5, 50 mM KCl, 5 mM EDTA, 1 mM DTT, 5% glycerol, 40 ug/ml BSA, room temperature; conditions: protein: recombinant;recombinant; tags: His (Ni-NTA purified; pMCSG7);His (Ni-NTA purified; pMCSG7); chain copies: 2;1; label: 5' 6-FAM on strand 1; blunt
Sequence of Kucore;LigD (P9WNV3 whole entry, chain 2 of 2, one chain of several): as the sequence (P9WNV3 whole entry) above

[5] = biological target: KuWT;LigD (Mycobacterium …, UniProt P9WKD9;P9WNV3 1-273;1-759, |); assay: as above; conditions: protein: recombinant;recombinant; tags: His (Ni-NTA purified; pMCSG7);His (Ni-NTA purified; pMCSG7); chain copies: 2;1; label: 5' 6-FAM on strand 1; blunt
Sequence of KuWT;LigD (P9WKD9 whole entry, chain 1 of 2): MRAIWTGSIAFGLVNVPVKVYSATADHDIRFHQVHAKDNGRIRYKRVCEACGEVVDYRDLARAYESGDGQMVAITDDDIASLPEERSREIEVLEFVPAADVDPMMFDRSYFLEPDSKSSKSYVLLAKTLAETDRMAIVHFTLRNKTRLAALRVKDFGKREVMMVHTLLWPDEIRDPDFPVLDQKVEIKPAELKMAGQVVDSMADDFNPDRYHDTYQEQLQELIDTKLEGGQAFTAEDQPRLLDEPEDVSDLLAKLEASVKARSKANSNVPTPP
Sequence of KuWT;LigD (P9WNV3 whole entry, chain 2 of 2): as the sequence (P9WNV3 whole entry) above

[6] = biological target: Kumin;LigD (Mycobacterium …, UniProt P9WKD9;P9WNV3 1-259;1-759, |); assay: as above; conditions: protein: recombinant;recombinant; tags: His (Ni-NTA purified; pMCSG7);His (Ni-NTA purified; pMCSG7); chain copies: 2;1; label: 5' 6-FAM on strand 1; blunt
Sequence of Kumin;LigD (P9WNV3 whole entry, chain 2 of 2, one chain of several): as the sequence (P9WNV3 whole entry) above

B1: 40 bp dsDNA (dsDNA)
DNA 1: CAGGGTAAGTGTGGAGGTGTAGGGAAGGGAATGTTGTCTG
DNA 2: CAGACAACATTCCCTTCCCTACACCTCCACACTTACCCTG
- Kd [1]: 70 ± 10 nM
- Kd [2]: 460 ± 80 nM
- Kd [3]: 350 ± 30 nM
- binding result [4]: binds
- binding result [5]: binds
- binding result [6]: binds
